Patent US20220226469A1 (ARCH ONCOLOGY, published 2022)

Key:
[1] = molecular target: T1, HIS tagged human SIRPα (ACRO #SIG-H5225) (human, UniProt P78324 31-373); assay: blocking ELISA on plate-coated HIS tagged human SIRPα; competitor Fc tagged human CD47 (250 ng/ml)
T1 construct: Bought protein; also called Histidine (HIS) tagged human SIRPα; not shown: histidine tag
Experimental: HIS tagged human SIRPα (ACRO #SIG-H5225) is adsorbed to high-binding microtiter plates at a concentration of 1 μg/ml diluted in PBS overnight at 4° C. The coating solution is removed, the wells are washed and then blocked with […] in PBS containing 0.5% Tween 20 (PBST) for 60 minutes at room temperature while shaking. Blocking solution is removed, the wells are washed and incubated for 60 minutes at room temperature while shaking with anti-SIRP mAbs diluted in PBST at a starting concentration of 30 μg/ml and reducing the concentration by 3-fold serial dilutions. Wells are washed three times with PBST and incubated for 60 minutes at room temperature while shaking with an FC tagged human CD47 (ACRO #CD7-H5256) at a concentration of 250 ng/ml in PBST. Wells are washed three times with PBST and incubated for 60 minutes at room temperature while shaking with an HRP labeled donkey anti-mouse or anti-human secondary antibody (Jackson ImmunoResearch Laboratories) diluted 1:20,000 in PBST. The wells are washed and then incubated with peroxidase substrate and the absorbance at 450 nm determined. The IC₅₀ was calculated using a non-linear fit model (GraphPad Prism).

[2] = molecular target: T2, human SIRPα expressed on cells (THP-1 cells, human monocyte-derived macrophages, dendritic cells) (human, UniProt P78324 31-504); assay: flow cytometry on human monocyte-derived dendritic cells; apparent Kd
T2 construct: Endogenous SIRPα of cell line or donor cells; also called cell-expressed SIRPα; macrophage expressed SIRPα
Experimental: (§1) Human CD14⁺ monocytes, isolated from peripheral blood mononuclear cells (Astarte Biologics) were differentiated in vitro for seven days into macrophages or dendritic cells. For macrophage differentiation, monocytes were incubated in AIM-V media (Life Technologies) supplemented with 50 ng/ml M-CSF (Biolegend) for seven days. For dendritic cell differentiation, monocytes were incubated in AIM-V media (Life Technologies) in the presence of 10% human AB serum (Valley Biomedical), 200 ng/ml GM-CSF (Biolegend) and 50 ng/ml IL-4 (Biolegend). The cells were incubated for 1 h at 37° C., 5% CO₂ with serial dilutions of SIRP mAbs in binding buffer containing 1 mM EDTA (Sigma Aldrich) and 1% FBS (Biowest) in PBS (Corning). The cells were then washed and stained for 45 min under the same conditions with donkey anti-mouse IgG fluorescein isothiocyanate (FITC)-linked secondary antibody (Jackson ImmunoResearch Laboratories). The cells were subsequently stained with anti-CD14 or anti-CD11c conjugated to Alexa Fluor 647 fluorophore (Life Technologies and Biolegend, respectively) for 30 min on ice, washed and analyzed by flow cytometry (Attune, Life Technologies). Binding was assessed as the median FITC fluorescence intensity of CD14⁺ or CD11c⁺ cells, subtracted from cells stained with the secondary antibody only.

[3] = molecular target: T2, human SIRPα expressed on cells (THP-1 …); assay: flow cytometry on human monocyte-derived macrophages; apparent Kd
Experimental: as §1

T1 sequence (P78324 31-373 limits assumed): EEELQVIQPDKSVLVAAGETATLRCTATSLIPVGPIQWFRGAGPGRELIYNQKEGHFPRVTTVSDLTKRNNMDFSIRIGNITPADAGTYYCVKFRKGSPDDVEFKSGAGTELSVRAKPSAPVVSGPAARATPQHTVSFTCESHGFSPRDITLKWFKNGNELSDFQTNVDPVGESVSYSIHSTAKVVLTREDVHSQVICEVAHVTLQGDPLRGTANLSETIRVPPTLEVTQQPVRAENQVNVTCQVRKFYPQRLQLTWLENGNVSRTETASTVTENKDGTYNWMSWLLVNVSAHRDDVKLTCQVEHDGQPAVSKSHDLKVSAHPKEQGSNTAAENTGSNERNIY
T2 sequence (P78324 other isoform, or with tags, fused parts or gaps): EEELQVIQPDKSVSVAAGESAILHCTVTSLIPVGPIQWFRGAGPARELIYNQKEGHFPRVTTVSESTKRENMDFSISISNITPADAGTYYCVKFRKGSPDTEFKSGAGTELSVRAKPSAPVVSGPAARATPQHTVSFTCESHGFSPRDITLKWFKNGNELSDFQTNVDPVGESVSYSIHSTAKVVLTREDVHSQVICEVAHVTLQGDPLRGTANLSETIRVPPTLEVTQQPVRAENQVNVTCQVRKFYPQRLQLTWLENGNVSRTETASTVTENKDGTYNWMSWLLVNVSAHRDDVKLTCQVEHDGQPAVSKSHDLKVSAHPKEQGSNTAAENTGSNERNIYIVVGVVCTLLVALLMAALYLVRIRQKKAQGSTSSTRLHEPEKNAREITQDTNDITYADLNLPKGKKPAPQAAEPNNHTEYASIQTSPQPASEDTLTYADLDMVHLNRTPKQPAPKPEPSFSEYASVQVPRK

| Binder | IC50 [1] [nM] | Kd [2] [nM] | Kd [3] [nM] |
| --- | --- | --- | --- |
| SIRP7 (antibody, V domains shown) VH: EVQLQQSGPELVKPGASVKMSCRASGYTFSTYVMHWIKHRPGQGLEWIGYINPNNDGPNYNEKFKGKATLTSDISSSTAYMELSSLTSEDSAVYFCSRWDSYNSAAGFAYWGHGTLVTVSA VL: EIVLTQSPTTMAASPGEKITIICSASSSISSNFLHWYQQKPGFSPRFLIYRTSILASGVPTRFSGSGSGTSYSLTIDTMEAEDVATYYCQQGSGLPLTFGSGTKLEIK | 1.1 | – | – |
| SIRP2 (antibody, mouse IgG1, kappa, V domains shown, Hybridoma-derived mouse mAb) VH: EVKLVESGGGLVQPGGSLKLSCAASGFSFSGCTMSWIRQTPERRLEWVAYISNGGDITYYPDTVKGRFTISRDNAKNSLYLQMSSLKSEDTAMYYCARLDGYYYAMDFWGQGTSVTVSS VL: DILLTQSPAILSVSPGERVSFSCRASQSIGTSIHWYQQRTNGSPRLLIKYGSESISGIPSRFSGSGSGTDFTLSINSVESEDIADYYCQQSNTWPLTFGDGTKLELKR | 3 | – | – |
| SIRP3 (antibody, mouse IgG1, kappa, V domains shown, Hybridoma-derived mouse mAb) VH: EVQLQQSGPEVVKPGASVKMSCKASGYTFTSYVMHWVKQKPGQGLEWIGYINPYNDGPKYNEKFKGKATLTSDKSSSTAYMELSSLTSEDSAVYFCARWDYFNSASGFAFWGQGTLVTVSA VL: EIVLTQSPTTMAASPGEKITIICSASSIIGSDFLHWYQQRPGFSPKFLIYRTSILASGVPTRFTGSGSGTSYSLTIGTMEAEDVATYYCQQGSGLPLTFGSGTKLEMKR | 2.7 | 0.00347 | – |
| SIRP4 (antibody, V domains shown, anti-mouse secondary) VH: EVQLQQSGPDLVKPGASVKISCKASGYSFTDYFLNWVKQSHGKSLEWIGRINPYNGDSFINQNFRDKATLTVDKSSTTAHMDLLSLTSEDSAIYYCGRGGYDGYFIAYFDYWGQGSLVTVSA VL: DIKLTQSQSSMYSSLGQRVTITCKASQDINSHLSWFQEKPGKSPKTLIYRANRLADGVPSRFSGSGSGQDYFLTISSLEYEDVGIYYCLQYDEFPYTFGGGTKLEIK | 0.71 | 0.05 | 0.0207 |
| SIRP9 (antibody, V domains shown, anti-mouse secondary) VH: EVQLQESGAELVRPGASVKLSCKALGYTFTDYEIHWVKETPVYGLEWIGDIHPGSGGTANNQKFKGKATLTADKSSNTAYMELSSLTSEDSAVYYCTRAVSGYYAMDYWGQGTSVTVSS VL: DIQMTQSSSSFSGSLGDRLTINCKASEDIYDRVAWYQQKPGNAPRLLISGTASLETGVLSRFSGSGSGKDYTLSINGLQAEDVATYYCQQYWTTPWTFGGGTKLEIK | – | – | 0.0937 |
| SIRP5 (antibody, V domains shown) VH: QVQLQQSAAELARPGASVKMSCKASGYTFTSYTMHWVKQRPGQGLEWIGYINPTIGYTEYNQKFKDKTTLTADKSSSTAYMQLSSLTSEDSAVYYCVRLVITSVLGRAMDYWGQGTSVTVSS VL: QIVLTQSPALMSASPGEKVTMTCSASSSVSYMYWFQQKPRSSPKPWIYLTSNLASGVPARFSGSGSGTSYSLTISSMEAEDAATYYCQQWSGNPFTFGSGTKLEIK | – | 0.77 | – |
| KWAR-23 (antibody, V domains shown) VH: EVQLQQSGAELVKPGASVKLSCTASGFNIKDYYIHWVQQRTEQGLEWIGRIDPEDGETKYAPKFQDKATITADTSSNTAYLHLSSLTSEDTAVYYCARWGAYWGQGTLVTVSA VL: QIVLTQSPAIMSASPGEKVTLTCSASSSVSSSYLYWYQQKPGSSPKLWIYSTSNLASGVPARFSGSGSGTSYSLTISSMEAEDAASYFCHQWSSYPRTFGAGTKLELKR | – | 0.0234 | – |
